Measurements published in IntAct's records for PubMed 16619024.

B1: Translocon at the outer membrane of chloroplasts 64 (Pisum sativum (Garden pea)), Q9MUK5 (parent)
chain: MKSMASPSSQIWVILGLGLAGIYVLTRKLTQAVKEDFGAFLLKLKLLPPPPPAPPKAPHPLSSLNFAISDIFDIEGHVSTFGHPEWARTHEPASSTASAVSALVESGATCIGTTVVDELAYGISGENKHFGTPTNPAVPNRVPGGSSSGAAVAVAANFVDFSLGVDTSGGVRVPAGFCGILGFRPSHGAVSHVGIIPVSTSLDTVGWFAKDPDVLRRVGHILLQAPFVMQRNPRQIIIADDCFQHLNVPLDRTSQVVIKATEKLFGKQVLKHINFEDYISSKVSSLKACSIQKSNGVLKSSSLKLLANVMQSLQRHEFEHTHSEWMSIVKPDLHPAVSAQLHEKFEVSELEIENSKSVRSELRVAVNSLLKDEGVLVIPTVADPPPKLGGKEFLSHDYQSRALSLLSIASISGCCQVTVPLGFFDKNPVSVSLIARHGGDRFLLDTLKTMYTVLQEQADIAAPSKSSKSVVSKEQSAEISKEKGNQAYKDKQWQKAIGFYTEAIKLCGNNATYYSNRAQAYLELGSYLQAEEDCTTAISFDKKNVKAYFRRGTAREMLGYYKEAIDDFKYALVLEPTNKRAASSAERLRKLFQ

Variants of: B1
Conditions: with hs704_arath HSP70-4, Q9LHA8

effect of a mutation on the interaction | Variant
decreasing interaction | MKSMASPSSQIWVILGLGLAGIYVLTRKLTQAVKEDFGAFLLKLKLLPPPPPAPPKAPHPLSSLNFAISDIFDIEGHVSTFGHPEWARTHEPASSTASAVSALVESGATCIGTTVVDELAYGISGENKHFGTPTNPAVPNRVPGGSSSGAAVAVAANFVDFSLGVDTSGGVRVPAGFCGILGFRPSHGAVSHVGIIPVSTSLDTVGWFAKDPDVLRRVGHILLQAPFVMQRNPRQIIIADDCFQHLNVPLDRTSQVVIKATEKLFGKQVLKHINFEDYISSKVSSLKACSIQKSNGVLKSSSLKLLANVMQSLQRHEFEHTHSEWMSIVKPDLHPAVSAQLHEKFEVSELEIENSKSVRSELRVAVNSLLKDEGVLVIPTVADPPPKLGGKEFLSHDYQSRALSLLSIASISGCCQVTVPLGFFDKNPVSVSLIARHGGDRFLLDTLKTMYTVLQEQADIAAPSKSSKSVVSKEQSAEISKEKGNQAYKDKQWQKAIGFYTEAIKLCGNNATYYSNRAQAYLELGSYLQAEEDCTTAISFDKKNVKAYFARGTAREMLGYYKEAIDDFKYALVLEPTNKRAASSAERLRKLFQ [R550A]
